For test [1], the target named is T1, KATP channel in rat pancreatic beta cells (Rattus norvegicus, UniProt Q09429).
T1 construct: recorded from the freshly isolated rat pancreatic beta cells; endogenous in cells; host or cells: freshly isolated rat pancreatic beta cells
Kind of test: KATP whole-cell patch-clamp currents in freshly isolated rat pancreatic beta cells. Format: cell-based. How it is done: Representative KATP whole-cell patch-clamp currents recorded from the freshly isolated rat pancreatic beta cells in the absence (control) and presence of recombinant syntaxin-1A protein are shown in FIG. 7A. Cells were stimulated by voltage steps from −140 to −20 mV (or 0 mV) from a holding potential of −50 mV. […] Recombinant syntaxin-1A (10^−3 M) was dialyzed into the cell interior through the patch pipette. […] All currents were recorded 15 min after the formation of the whole-cell configuration when a cell interior exchanged with the pipette solution containing low (0.3 mM) ATP concentration that under control conditions opens the KATP channel.

For a further test, the system named is NBF-1 and NBF-2 of SUR-1. The test can be described thus: GST pull-down binding of Syn-1A or SNAP-25 with GST-NBF-1 / GST-NBF-2 of SUR-1, Western blot. The conditions noted are these: 375 pmol protein each, 4° C., 2 hours, glutathione beads. How it is done: (§1) GST (control) or GST-NBF-1 or GST-NBF-2 (375 pmol protein)of SUR-1 or SUR-2A, bound to glutathione beads, was incubated with Syn-1A or SNAP-25 (375 pmol protein) in 25 mM Hepes (pH 7.4) with 50 mM NaCl, 0.1% gelatin, 0.1% Triton X-100, 0.1% BSA and 0.2% β-mercaptoethanol at 4° C. for 2 hours. Following washing the beads three times with 20 mM Hepes(pH 7.4) with 150 mM KoAc, 1 mM EDTA, 1 mM MgCl2, 5% glycerol and 0.1% Triton X-100, the samples were subjected to 15% SDS-PAGE, transferred to nitrocellulose membrane and probed with antibody against Syn-1A (1:2000) or SNAP-25 (1:1000).
On the technique in general: In western blotting, separated proteins are transferred to a membrane and probed.

For test [2], the system named is NBF-1 and NBF-2 of SUR-2A. The test can be described thus: GST pull-down binding of Syn-1A or SNAP-25 with GST-NBF-1 / GST-NBF-2 of SUR-2A, Western blot. The note with it: 375 pmol protein each, 4° C., 2 hours, glutathione beads. How it is done:
as §1

Test [3] has as its target T2, KATP channel (SUR1/KATP complex) in insulinoma HIT cells (Cricetus cricetus, UniProt Q09427).
T2 construct: in HIT cells on the endogenous KATP whole-cell currents; endogenous in cells; host or cells: insulinoma HIT cells
The test can be described thus: KATP whole-cell patch-clamp currents in insulinoma HIT cells. The class given is cell-based. How it is done: Representative KATP whole-cell patch-clamp currents recorded from the control and syntaxin-1A overespressing HIT cells are shown in FIG. 6A. Cells were stimulated by voltage steps from −140 to 0 mV from a holding potential of −50 mV. […] All currents were recorded 15 min after the formation of the whole-cell configuration when a cell interior exchanged with the pipette solution containing low (0.3 mM) ATP concentration. […] An asterisk indicates the first minutes of recording after obtaining the whole-cell configuration. Pipette solution contains 3 mM MgADP and only 0.3 mM ATP. […] Currents were measured at −120 mV, and normalized to the maximal current (Imax).
On the technique in general: In patch-clamp work, channel activity is measured electrically.

T2 sequence (Q09427 whole entry, one chain of several): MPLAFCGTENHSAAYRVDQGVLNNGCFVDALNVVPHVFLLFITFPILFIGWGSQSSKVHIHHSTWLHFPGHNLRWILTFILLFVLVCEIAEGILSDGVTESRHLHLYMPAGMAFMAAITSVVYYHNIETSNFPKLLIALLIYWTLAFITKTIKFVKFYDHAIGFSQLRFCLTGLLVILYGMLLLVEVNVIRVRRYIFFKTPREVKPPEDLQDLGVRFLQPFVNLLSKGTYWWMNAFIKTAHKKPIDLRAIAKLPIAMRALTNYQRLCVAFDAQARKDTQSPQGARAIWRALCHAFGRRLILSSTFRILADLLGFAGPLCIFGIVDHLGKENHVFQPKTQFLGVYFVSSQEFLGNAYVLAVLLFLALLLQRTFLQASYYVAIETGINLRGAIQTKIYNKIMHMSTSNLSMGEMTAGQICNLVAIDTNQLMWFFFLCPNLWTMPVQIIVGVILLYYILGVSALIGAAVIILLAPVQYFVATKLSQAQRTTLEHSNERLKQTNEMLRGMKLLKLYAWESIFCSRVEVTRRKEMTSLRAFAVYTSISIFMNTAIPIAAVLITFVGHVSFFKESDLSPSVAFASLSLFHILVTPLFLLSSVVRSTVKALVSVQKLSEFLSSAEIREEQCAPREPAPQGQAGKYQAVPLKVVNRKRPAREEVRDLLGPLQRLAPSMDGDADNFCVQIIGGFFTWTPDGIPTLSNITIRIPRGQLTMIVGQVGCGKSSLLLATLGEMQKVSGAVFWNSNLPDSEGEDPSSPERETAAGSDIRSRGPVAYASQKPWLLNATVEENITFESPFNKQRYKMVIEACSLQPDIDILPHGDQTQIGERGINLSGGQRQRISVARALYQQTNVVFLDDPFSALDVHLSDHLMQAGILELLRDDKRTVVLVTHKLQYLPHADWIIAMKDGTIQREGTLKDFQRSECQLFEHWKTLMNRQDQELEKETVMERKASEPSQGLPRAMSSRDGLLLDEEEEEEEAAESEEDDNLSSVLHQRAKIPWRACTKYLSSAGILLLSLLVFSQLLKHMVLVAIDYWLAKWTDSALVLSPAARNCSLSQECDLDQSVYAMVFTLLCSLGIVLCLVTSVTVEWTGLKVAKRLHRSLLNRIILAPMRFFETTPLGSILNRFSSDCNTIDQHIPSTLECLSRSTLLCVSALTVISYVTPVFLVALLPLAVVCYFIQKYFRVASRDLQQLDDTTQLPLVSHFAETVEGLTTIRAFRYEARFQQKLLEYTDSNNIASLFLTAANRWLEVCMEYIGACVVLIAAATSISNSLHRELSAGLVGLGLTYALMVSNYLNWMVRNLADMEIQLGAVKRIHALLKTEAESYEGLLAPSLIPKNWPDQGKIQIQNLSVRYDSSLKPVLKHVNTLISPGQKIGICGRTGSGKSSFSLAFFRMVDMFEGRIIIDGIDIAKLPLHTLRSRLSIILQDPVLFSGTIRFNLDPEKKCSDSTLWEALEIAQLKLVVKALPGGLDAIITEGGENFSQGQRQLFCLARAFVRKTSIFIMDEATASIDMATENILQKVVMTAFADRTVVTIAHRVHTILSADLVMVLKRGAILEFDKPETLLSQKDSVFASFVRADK
T1 sequence (Q09429 whole entry): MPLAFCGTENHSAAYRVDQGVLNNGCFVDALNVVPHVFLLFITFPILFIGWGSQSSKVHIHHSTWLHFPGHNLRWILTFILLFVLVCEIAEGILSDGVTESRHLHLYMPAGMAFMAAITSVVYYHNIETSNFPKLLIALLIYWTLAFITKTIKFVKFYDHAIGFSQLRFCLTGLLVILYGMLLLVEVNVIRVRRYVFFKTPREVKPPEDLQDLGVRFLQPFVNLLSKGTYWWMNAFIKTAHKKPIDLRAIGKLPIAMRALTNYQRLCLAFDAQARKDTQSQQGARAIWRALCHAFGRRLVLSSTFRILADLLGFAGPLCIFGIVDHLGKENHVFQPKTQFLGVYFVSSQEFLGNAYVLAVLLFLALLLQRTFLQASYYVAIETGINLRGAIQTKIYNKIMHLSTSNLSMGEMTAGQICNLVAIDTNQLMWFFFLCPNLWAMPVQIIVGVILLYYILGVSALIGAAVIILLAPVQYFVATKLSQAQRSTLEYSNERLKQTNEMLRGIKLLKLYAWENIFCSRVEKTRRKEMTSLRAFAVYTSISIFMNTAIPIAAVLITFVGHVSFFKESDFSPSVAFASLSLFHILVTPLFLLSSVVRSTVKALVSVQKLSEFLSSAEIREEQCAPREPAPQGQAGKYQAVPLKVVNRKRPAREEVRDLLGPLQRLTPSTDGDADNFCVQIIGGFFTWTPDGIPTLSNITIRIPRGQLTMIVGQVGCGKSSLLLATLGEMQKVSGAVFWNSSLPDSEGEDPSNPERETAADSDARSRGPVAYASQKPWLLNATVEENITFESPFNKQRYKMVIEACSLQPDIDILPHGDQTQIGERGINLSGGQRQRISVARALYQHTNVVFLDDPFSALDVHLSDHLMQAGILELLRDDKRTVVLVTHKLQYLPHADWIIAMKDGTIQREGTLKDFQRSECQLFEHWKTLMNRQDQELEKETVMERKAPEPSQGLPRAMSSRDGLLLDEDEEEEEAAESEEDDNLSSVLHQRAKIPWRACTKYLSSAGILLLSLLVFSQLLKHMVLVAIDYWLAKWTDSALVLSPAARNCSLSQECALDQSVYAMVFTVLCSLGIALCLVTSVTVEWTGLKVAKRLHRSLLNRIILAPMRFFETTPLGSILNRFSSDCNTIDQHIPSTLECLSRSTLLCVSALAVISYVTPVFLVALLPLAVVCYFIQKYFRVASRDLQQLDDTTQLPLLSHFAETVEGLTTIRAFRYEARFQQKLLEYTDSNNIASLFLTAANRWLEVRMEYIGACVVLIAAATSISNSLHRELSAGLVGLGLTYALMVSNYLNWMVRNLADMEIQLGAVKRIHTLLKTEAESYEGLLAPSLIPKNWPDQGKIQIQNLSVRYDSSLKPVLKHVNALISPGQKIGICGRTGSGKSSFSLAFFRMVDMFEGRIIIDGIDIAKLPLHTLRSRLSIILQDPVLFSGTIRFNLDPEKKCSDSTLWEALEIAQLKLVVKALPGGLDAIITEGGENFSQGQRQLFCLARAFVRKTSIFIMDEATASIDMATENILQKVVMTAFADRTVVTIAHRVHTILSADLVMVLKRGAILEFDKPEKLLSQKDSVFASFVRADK
T1 sequence (P70673 whole entry partner): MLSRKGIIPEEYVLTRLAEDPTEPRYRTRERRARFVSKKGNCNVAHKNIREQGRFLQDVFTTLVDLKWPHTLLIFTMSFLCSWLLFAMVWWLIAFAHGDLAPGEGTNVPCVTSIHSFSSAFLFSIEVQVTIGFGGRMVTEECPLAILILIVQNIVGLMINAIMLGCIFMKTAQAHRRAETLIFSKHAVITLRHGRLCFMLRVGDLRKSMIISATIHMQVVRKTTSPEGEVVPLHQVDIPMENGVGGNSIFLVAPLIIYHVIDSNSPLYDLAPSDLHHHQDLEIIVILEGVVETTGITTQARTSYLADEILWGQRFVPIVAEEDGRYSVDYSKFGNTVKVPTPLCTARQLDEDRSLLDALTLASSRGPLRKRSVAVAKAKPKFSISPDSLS

As to “syntaxin-1A: endogenous SNARE superfamily protein; recombinant rat syntaxin-1A (SEQ ID NO: 1) or overexpressed in cells”, the “KATP whole-cell currents versus control beta cells” value in test [1] (recombinant syntaxin-1A 10^−3 M dialyzed through patch pipette, 0.3 mM ATP, 15 min) was “reduced compared with the control beta cells”. The “inhibitory effect on mean KATP whole cell-currents (channel activity)” value in test [1] (recombinant syntaxin-1A, 0.3 mM ATP in pipette, measured at −120 mV, recorded for 15 minutes) was “strongly inhibits”. Further, in the test on NBF-1 and NBF-2 of SUR-1, the “binding (pull down) to NBF-1 and NBF-2 of SUR1” value was “directly ‘pulled’ down”. Also, the “binding (pull down) to NBF-1 and NBF-2 of SUR2A” value in test [2] is on record as “directly ‘pulled’ down”. The “KATP whole-cell currents versus control cells” value in test [3] (HIT cells transfected with (overexpressing) syntaxin-1A, pipette 0.3 mM ATP, 15 min) was “reduced compared with the control cells”. In test [3] (syntaxin-1A overexpressing HIT cells (>3 fold by Western), pipette 0.3 mM ATP, measured at −140 mV), the “KATP whole-cell current at t=15 min relative to t=0 min” value is on record as “remained unchanged”.
For MgADP [reference compound], the “reversal of syntaxin-1A inhibited KATP current at t=15 min compared with t=0 min” value in test [3] (MgADP 3 mM in pipette, 0.3 mM ATP, syntaxin-1A overexpressing HIT cells, measured at −120 mV) came out at 46%.

These data come from patent publication US7267959B2, “Drug target within the sulfonylurea receptor” (priority 2001, dated 2007).
